From US6465254, “Mutant loxP site and applications thereof” (Sumitomo Pharmaceuticals Company, Limited)
Where a chain is given by its changes, count along the chain named.

B1: mutant loxP #3271 (dsDNA)
DNA 1: ATAACTTCGTATAATCTATACTATACGAAGTTAT
DNA 2: B1 DNA 1 with A14G, C16A, T19G, C21T
B2: mutant loxP #2171 (dsDNA)
DNA 1: B1 DNA 1 with T15C, C16G
DNA 2: ATAACTTCGTATAGTATACGTTATACGAAGTTAT
B3: mutant loxP #4372 (dsDNA)
DNA 1: B1 DNA 1 with C16G, T17G, A20C
DNA 2: B2 DNA 2 with T15G, A18C, G20A
B4: mutant loxP #2273 (dsDNA)
DNA 1: B1 DNA 1 with T15A, C16G, A20T
DNA 2: B2 DNA 2 with T15A, G20T
B5: mutant loxP #2371 (dsDNA)
DNA 1: B1 DNA 1 with T15G, C16G
DNA 2: B2 DNA 2 with G20C
B6: mutant loxP #11 (dsDNA)
DNA 1: B1 DNA 1 with A14G, C16G, A20G
DNA 2: B2 DNA 2 with T15C, G20A, T21C
B7: mutant loxP #13 (dsDNA)
DNA 1: B1 DNA 1 with A14C, C16G, A20G
DNA 2: B2 DNA 2 with T15C, G20A, T21G
B8: mutant loxP #62 (dsDNA)
DNA 1: B1 DNA 1 with C16G, T19A, A20G
DNA 2: B2 DNA 2 with T15C, A16T, G20A
B9: mutant loxP #61 (dsDNA)
DNA 1: B1 DNA 1 with C16G, T19C, A20G
DNA 2: B2 DNA 2 with T15C, A16G, G20A
B10: mutant loxP #63 (dsDNA)
DNA 1: B1 DNA 1 with C16G, T19G, A20G
DNA 2: B2 DNA 2 with T15C, A16C, G20A
B11: mutant loxP #41 (dsDNA)
DNA 1: B1 DNA 1 with C16G, T17C, A20G
DNA 2: B2 DNA 2 with T15C, A18G, G20A
B12: mutant loxP #51 (dsDNA)
DNA 1: B1 DNA 1 with C16G, A18G, A20G
DNA 2: B2 DNA 2 with T15C, T17C, G20A
B13: mutant loxP #53 (dsDNA)
DNA 1: B1 DNA 1 with C16G, A18C, A20G
DNA 2: B2 DNA 2 with T15C, T17G, G20A
B14: mutant loxP #52 (dsDNA)
DNA 1: B1 DNA 1 with C16G, A18T, A20G
DNA 2: B2 DNA 2 with T15C, T17A, G20A
B15: mutant loxP #4272 (dsDNA)
DNA 1: B1 DNA 1 with C16G, T17A, A20C
DNA 2: B2 DNA 2 with T15G, A18T, G20A
B16: mutant loxP #3171 (dsDNA)
DNA 1: B1 DNA 1 with C16A
DNA 2: B2 DNA 2 with C19T, G20A
B17: mutant loxP #4371 (dsDNA)
DNA 1: B1 DNA 1 with C16G, T17G
DNA 2: B2 DNA 2 with A18C, G20A
B18: mutant loxP #4271 (dsDNA)
DNA 1: B1 DNA 1 with C16G, T17A
DNA 2: B2 DNA 2 with A18T, G20A
B19: mutant loxP #2172 (dsDNA)
DNA 1: B1 DNA 1 with T15C, C16G, A20C
DNA 2: B2 DNA 2 with T15G

Each binder was assayed against T1, Cre recombinase (UniProt P06956 P06956:1-343) (assay: self x self; intermediate 3). Conditions: tags: expressed from recombinant adenovirus AxCANCre in 293 cells.
T1 sequence (P06956 whole entry, one chain of several): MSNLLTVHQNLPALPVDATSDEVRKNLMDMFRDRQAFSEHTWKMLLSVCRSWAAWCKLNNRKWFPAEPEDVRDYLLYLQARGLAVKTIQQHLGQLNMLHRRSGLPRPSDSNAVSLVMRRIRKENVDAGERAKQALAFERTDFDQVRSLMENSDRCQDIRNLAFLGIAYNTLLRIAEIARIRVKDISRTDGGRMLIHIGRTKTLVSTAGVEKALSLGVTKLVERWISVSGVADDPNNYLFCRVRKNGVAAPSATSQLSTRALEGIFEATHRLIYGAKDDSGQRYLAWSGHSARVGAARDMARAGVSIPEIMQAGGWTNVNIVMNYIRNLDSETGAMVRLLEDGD
B1 showed an activity of 4 grade 0-9 final product.
In the case of B2, the activity is reported as 3 grade 0-9 final product.
B3 was tested, and the activity was 2 grade 0-9 final product.
B4 gave an activity of 4 grade 0-9 final product.
B5 gave an activity of 2 grade 0-9 final product.

These binders were tested against T1, Cre recombinase (assay: self x self; intermediate 4). Conditions: tags: expressed from recombinant adenovirus AxCANCre in 293 cells.
Experimental: (§1) Substrate DNA (1 μg) prepared in (3) and cell extract containing Cre (10 μl) prepared in (1) were incubated at 37° C. for 30 min in a 50 μl volume of buffer containing 50 mM Tris-HCl (pH 7.5)/10 mM MgCl2/1 mg/ml bovine serum albumin/1 mM phenylmethylsulfonyl fluoride (PMSF)/5 μg/ml aprotinin. After completion of the reaction, 45 μl of TE buffer (pH 8.0) and 5 μl of EDTA solution (pH 8.0) were added to the reaction mixture, extracted with phenol/chloroform and with chloroform, followed ethanol precipitation. The recovered DNA was dissolveld in 30 μl of TE buffer (pH 8.0) containing RNase A (20 μg/ml). Half volume thereof was digested with restriction enzyme BsaHI. The DNA bands detected by ethidium bromide (EtBr) staining after agarose gel electrophoresis, were analyzed.
(§2) Before recombination mediated by Cre, restriction enzyme BsaHI digestion of linear substrate DNA (approx. 4.1 kb) generates four bands of 2.7 kb, 610 bp, 380 bp and 360 bp. On the other hand, as a result of recombination of substrate DNA mediated by Cre, a circular DNA of approx. 4.0 kb containing one mutant loxP, and a linear DNA of approx. 50 bp consisting of only mutant loxP, are produced. Digestion of these DNA with restriction enzyme BsaHI generates four bands of 2.7 kb, 920 bp, 380 bp and 50 bp (refer to FIG. 6).
B6 was tested, and the activity was 2 grade 0-9 final product.
For B7, the activity was 3 grade 0-9 final product.

The binders below were run against T1, Cre recombinase (assay: self x self; intermediate 1). Conditions: tags: expressed from recombinant adenovirus AxCANCre in 293 cells.
Experimental: as §1, §2
B8 showed an activity of 8 grade 0-9 final product.
B9 showed an activity of 8 grade 0-9 final product.
Binder B10 has an activity of 9 grade 0-9 final product.
B11 showed an activity of 7 grade 0-9 final product.
With B12 the activity was 9 grade 0-9 final product.
B13 showed an activity of 8 grade 0-9 final product.
B14 showed an activity of 9 grade 0-9 final product.

Biological target: T1, Cre recombinase
Assay: self x self; intermediate 4
Conditions: tags: expressed from recombinant adenovirus AxCANCre in 293 cells
Remark: another data set of the same source
B15 gave an activity of 1 grade 0-9 final product.
With B16 the activity was 7 grade 0-9 final product.
B17 showed an activity of 2 grade 0-9 final product.
B18 was tested, and the activity was 2 grade 0-9 final product.
Binder B19 has an activity of 2 grade 0-9 final product.
